# Values quoted from earlier work as cited in US10195287B2, “Biologically active insulin derivatives” (Chemical & Biopharmaceutical Laboratories of Patras S.A., priority 2013, dated 2019).
# Molecular target: human receptor (Homo sapiens, UniProt P06213)
# Conditions: compared with human insulin
row,activity on the human receptor,Substance
1,approximately the same strength,bovine insulin: animal insulin that varies from human insulin by three amino acids
2,approximately the same strength,Porcine insulin: animal insulin with a single amino acid variation from the human variety
